The values that follow come from patent publication US20110143963A1.

In assay [1] the target is ARVCF peptide PQPVDSWV-COOH (eight-residue motif corresponding to the ARVCF C-terminus). Briefly: SPR (BIAcore).
The target of assay [2] is δ-catenin peptide PASPDSWV-COOH. Briefly: SPR (BIAcore).
The target of assay [3] is eSH2-3 (human) (UniProt P62993). Kind of assay: competition phage ELISA: eSH2-3 phage pre-incubated with free pY1139 peptide, unbound phage captured.
The target of assay [4] is eSH2-6 (human) (UniProt P62993). Kind of assay: competition phage ELISA: eSH2-6 phage pre-incubated with free pY1139 peptide, unbound phage captured.
Assay [5] has as its target eSH2-3 (human) (UniProt P62993). Briefly: panel B, competition phage ELISA: eSH2-3 phages incubated with free pY1139 peptide (0 to 50 nM), phages not bound to the free peptide captured and detected.
The target of assay [6] is eSH2-6 (human) (UniProt P62993). Briefly: panel C, competition phage ELISA: eSH2-6 phages incubated with free pY1139 peptide (0 to 50 nM), phages not bound to the free peptide captured and detected.
Assay [7] has as its target SH2 domain of human Grb2 (human) (UniProt P62993). Kind of assay: panel D, competition phage ELISA: wtSH2 (Grb2-SH2) phages incubated with free pY1139 peptide (0 to about 2200 nM), phages not bound to the free peptide captured and detected.

Chain of SH2 domain of human Grb2 (human) (P62993 56-153 limits assumed): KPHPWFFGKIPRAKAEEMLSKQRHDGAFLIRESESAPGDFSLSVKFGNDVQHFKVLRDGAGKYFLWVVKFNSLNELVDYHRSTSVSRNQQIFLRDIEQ

Regarding “PDZ domain of Erbin (wild-type) (from UniProt Q96RT1 1314-1412)”, the Kd in assay [1] and in assay [2] was 10 µM in each case.

Take “pY-containing peptide corresponding to residues 1130-1146 of ErbB2 (HER2) pY1139”: the IC50 turned out to be 90 µM with eSH2-3 (human) [3]; 90 µM with eSH2-6 (human) [4]; 0.09 nM with eSH2-3 (human) [5]; 0.09 nM with eSH2-6 (human) [6]; 0.07 µM in assay [7].
